{"source": "paper PMC2173104", "experiment_in_all_cases": "two-hybrid", "key": {"[1]": {"biological_target": "Gal4 binding domain Iqg1p fusion protein, Iqg1p (1–1495) (S. cerevisiae) (UniProt Q12280)"}, "[2]": {"biological_target": "Gal4 binding domain fusion of Iqg1p (1–823) (S. cerevisiae) (UniProt Q12280)"}, "[3]": {"biological_target": "Gal4 binding domain fusion of Iqg1p (295–823) (S. cerevisiae) (UniProt Q12280)"}}}
{"substance": "Cdc12p in pGAD-C2 (from UniProt P32468 1-407) (natural protein)", "values": [{"measurement": "beta-galactosidase activity", "setting": "[1]", "result": 23, "unit": "Miller units"}]}
{"substance": "Myosin light chain protein Mlc1p in pGAD-C2 (from UniProt P53141 1-149) (natural protein)", "values": [{"measurement": "beta-galactosidase activity", "setting": "[1]", "result": 98.7, "unit": "Miller units"}, {"measurement": "beta-galactosidase activity", "setting": "[2]", "result": 107, "unit": "Miller units"}, {"measurement": "beta-galactosidase activity", "setting": "[3]", "result": 408, "unit": "Miller units"}]}
